# Measured values as given in article PMC3134622 (Biochemistry, 2011).
# T1: GST-PBD46 (peptide derivative of p21-activated serine/threonine kinase, PAK Binding Domain 46)
# T1 chain: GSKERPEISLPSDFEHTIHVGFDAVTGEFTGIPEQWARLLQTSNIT
# B1: Cdc42 wild type (natural protein)
# chain: not shown
# Target: T1, GST-PBD46 (peptide derivative of …)
# Experiment: pull-down
binder,measurement,value
B1,"ΔI (pull-down band intensity, wild type:PBD46 relative to T35A:PBD46)",4.2 ± 0.59
